# Data from patent US7063950.
# Columns and labels:
# [1] = target: human neuronal calcium channel α1B-2α2bβ1-3 (human); assay: saturation binding of 125I-ω-CgTx GVIA to transiently transfected HEK293 cells
# [2] = target: human neuronal calcium channel α1B-2α2bβ1-3 (human)
# [3] = target: human neuronal calcium channel α1B-1 subunit (human)
binder,measurement,setting,value
"CKSPGSSCSPTSYNCCRSCNPYTKRCY (modifications not checked) [125I-ω-CgTx GVIA, P01522 46-72]",Bmax (sites/cell),[1],37700 sites/cell
same,Kd,[1],0.0443 nM
same,fold binding capacity against α1B-2α2bβ1-2,[2],2 fold
same,fold surface receptor density against α1B-2β1-3,[2],13 fold
same,Bmax (sites/cell),[3],757 sites/cell
same,Kd,[3],0.0317 nM
